# Reference: doi:10.1101/207928
# Target: glycosylated full-length human insulin receptor isoform A (human) (UniProt P06213)
# Test: negative-stain electron microscopy
substance,measurement,value
glycosylated full-length human insulin receptor isoform A (from UniProt P06213-2 28-1370),stoichiometry N,2
